# Reference: patent publication US20180015177A1 (Genentech, published 2018)
# Several values for one entry are separate records, joined by “and”; a condition that tells them apart may be missing. Equal values may be shown once.
# T1: human Ly6E, N-terminal gD-tagged, stably expressed on PC3 cells (human, UniProt Q16553 21-101)
# T1 construct: GPI-linked protein on cells; also called hu Ly6E; human Ly6E transfected PC3 cells; not shown: N-terminal gD tag of the retroviral vector
# T1 sequence: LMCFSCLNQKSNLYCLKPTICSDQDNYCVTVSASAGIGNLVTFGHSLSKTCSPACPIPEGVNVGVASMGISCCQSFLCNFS
# Target: T1, human Ly6E, N-terminal gD-tagged, …
# Test: cell-based competitive binding on human Ly6E PC3 cells; competitor mouse 9B12
# Protocol: (§1) Cell-based Ly6E competitive binding assay—Cultured human Ly6E transfected PC3 cells were harvested with 5 mM EDTA containing PBS. Cells were washed with PBS and added onto a 384-well high binding plate (Meso Scale Discovery Technology (MSD); Gaithersburg, Md.). The plate was kept at room temperature for 1 hr to allow cells to adhere to the plate as described (See Lu, Y., Wong, W. L. & Meng, Y. G. A high throughput electrochemiluminescent cell-binding assay for therapeutic anti-CD20 antibody selection. Journal of Immunological Methods 314, 74-79 (2006)). The plate with cells was blocked with fetal bovine serum containing PBS for 1 hr and then cooled on ice. Serially diluted antibody variant samples were mixed with equal volume of fixed concentration of mouse 9B12 Ab. The mixtures were added onto the plates and incubated at 4° C. with gentle shaking for 1 hr.
# (§2) The plate was then washed with cold PBS and an anti-mouse IgG Fc specific Ab (Jackson ImmunoReserach; West Grove, Pa.) labeled with sulfo-ruthenium tag was added to the plate as the detection reagent. The plate was incubated at 4° C. with gentle shaking for 1 hr. After incubation the plate was washed again, and MSD read buffer (MSD; Gaithersburg, Md.) was added onto the wells. The plate was read with a MSD SectorÒ imager 6000. The data was graphed and analyzed using KaleidaGraph software (Synergy Software; Reading, Pa.) to determine IC₅₀ values.
row,Binder,IC50
1,"humanized 9B12 variant v19 (antibody, V domains shown, IgG. k1 graft 43+44+71 / VH2 graft + 24 + 37 + 49 + 73 + 76; Residue changes derived) VH: EVQLVESGPALVKPTQTLTLTCTVSGFSLTGYSVNWVRQPPGKALEWLGMIWGDGSTDYNSALKSRLTISKDNSKSQVVLTMTNMDPVDTATYYCARDYYFNYASWFAYWGQGTLVTVSS VL: DIQMTQSPSSLSASVGDRVTITCSASQGISNYLNWYQQKPGKTVKLLIYYTSNLHSGVPSRFSGSGSGTDYTLTISSLQPEDFATYYCQQYSELPWTFGQGTKVEIK",28 nM
2,"humanized 9B12 variant v18 (antibody, V domains shown, IgG. k1 graft 43+44+71 / VH2 graft + 24 + 49 + 73 + 76; Residue changes derived) VH: EVQLVESGPALVKPTQTLTLTCTVSGFSLTGYSVNWIRQPPGKALEWLGMIWGDGSTDYNSALKSRLTISKDNSKSQVVLTMTNMDPVDTATYYCARDYYFNYASWFAYWGQGTLVTVSS VL: DIQMTQSPSSLSASVGDRVTITCSASQGISNYLNWYQQKPGKTVKLLIYYTSNLHSGVPSRFSGSGSGTDYTLTISSLQPEDFATYYCQQYSELPWTFGQGTKVEIK",22 nM
3,"humanized 9B12 variant v16 (antibody, V domains shown, IgG. k1 graft 43+44+71 / VH2 graft + 24 + 37 + 49; Residue change derived) VH: EVQLVESGPALVKPTQTLTLTCTVSGFSLTGYSVNWVRQPPGKALEWLGMIWGDGSTDYNSALKSRLTISKDTSKNQVVLTMTNMDPVDTATYYCARDYYFNYASWFAYWGQGTLVTVSS VL: DIQMTQSPSSLSASVGDRVTITCSASQGISNYLNWYQQKPGKTVKLLIYYTSNLHSGVPSRFSGSGSGTDYTLTISSLQPEDFATYYCQQYSELPWTFGQGTKVEIK",27 nM
4,"humanized 9B12 variant v5 (antibody, V domains shown, IgG. k1 graft / VH3 graft + 71 + 78; Residue changes derived) VH: EVQLVESGGGLVQPGGSLRLSCAASGFSLTGYSVNWVRQAPGKGLEWVGMIWGDGSTDYNSALKSRFTISKDNSKNTVYLQMNSLRAEDTAVYYCARDYYFNYASWFAYWGQGTLVTVSS VL: DIQMTQSPSSLSASVGDRVTITCSASQGISNYLNWYQQKPGKAPKLLIYYTSNLHSGVPSRFSGSGSGTDFTLTISSLQPEDFATYYCQQYSELPWTFGQGTKVEIK",70 nM
5,"humanized 9B12 variant v25 (antibody, V domains shown, IgG. k1 graft + 71 / VH3 graft + 24 + 48 + 67 + 71 + 76 + 78; Residue changes derived) VH: EVQLVESGGGLVQPGGSLRLSCAVSGFSLTGYSVNWVRQAPGKGLEWLGMIWGDGSTDYNSALKSRLTISKDNSKSTVYLQMNSLRAEDTAVYYCARDYYFNYASWFAYWGQGTLVTVSS VL: DIQMTQSPSSLSASVGDRVTITCSASQGISNYLNWYQQKPGKAPKLLIYYTSNLHSGVPSRFSGSGSGTDYTLTISSLQPEDFATYYCQQYSELPWTFGQGTKVEIK",56 nM
6,"humanized 9B12 variant v24 (antibody, V domains shown, IgG. k1 graft + 71 / VH2 graft + 24 + 37 + 49 + 73 + 76; Residue changes derived) VH: EVQLVESGPALVKPTQTLTLTCTVSGFSLTGYSVNWVRQPPGKALEWLGMIWGDGSTDYNSALKSRLTISKDNSKSQVVLTMTNMDPVDTATYYCARDYYFNYASWFAYWGQGTLVTVSS VL: DIQMTQSPSSLSASVGDRVTITCSASQGISNYLNWYQQKPGKAPKLLIYYTSNLHSGVPSRFSGSGSGTDYTLTISSLQPEDFATYYCQQYSELPWTFGQGTKVEIK",53 nM
7,"humanized 9B12 variant v22 (antibody, V domains shown, IgG. k1 graft + 71 / VH2 graft + 24 + 49 + 73; Residue changes derived) VH: EVQLVESGPALVKPTQTLTLTCTVSGFSLTGYSVNWIRQPPGKALEWLGMIWGDGSTDYNSALKSRLTISKDNSKNQVVLTMTNMDPVDTATYYCARDYYFNYASWFAYWGQGTLVTVSS VL: DIQMTQSPSSLSASVGDRVTITCSASQGISNYLNWYQQKPGKAPKLLIYYTSNLHSGVPSRFSGSGSGTDYTLTISSLQPEDFATYYCQQYSELPWTFGQGTKVEIK",59 nM
8,"humanized 9B12 variant v9 (antibody, V domains shown, IgG. k1 graft 43+44 / VH3 graft + 24; Residue changes derived) VH: EVQLVESGGGLVQPGGSLRLSCAVSGFSLTGYSVNWVRQAPGKGLEWVGMIWGDGSTDYNSALKSRFTISRDNSKNTLYLQMNSLRAEDTAVYYCARDYYFNYASWFAYWGQGTLVTVSS VL: DIQMTQSPSSLSASVGDRVTITCSASQGISNYLNWYQQKPGKTVKLLIYYTSNLHSGVPSRFSGSGSGTDFTLTISSLQPEDFATYYCQQYSELPWTFGQGTKVEIK",34 nM and 44 nM
9,"humanized 9B12 variant v21 (antibody, V domains shown, IgG. k1 graft + 71 / VH2 graft + 24 + 37 + 49; Residue changes derived) VH: EVQLVESGPALVKPTQTLTLTCTVSGFSLTGYSVNWVRQPPGKALEWLGMIWGDGSTDYNSALKSRLTISKDTSKNQVVLTMTNMDPVDTATYYCARDYYFNYASWFAYWGQGTLVTVSS VL: DIQMTQSPSSLSASVGDRVTITCSASQGISNYLNWYQQKPGKAPKLLIYYTSNLHSGVPSRFSGSGSGTDYTLTISSLQPEDFATYYCQQYSELPWTFGQGTKVEIK",82 nM
10,"humanized 9B12 variant v15 (antibody, V domains shown, IgG. k1 graft 43+44+71 / VH3 graft + 71 + 78; Residue changes derived) VH: EVQLVESGGGLVQPGGSLRLSCAASGFSLTGYSVNWVRQAPGKGLEWVGMIWGDGSTDYNSALKSRFTISKDNSKNTVYLQMNSLRAEDTAVYYCARDYYFNYASWFAYWGQGTLVTVSS VL: DIQMTQSPSSLSASVGDRVTITCSASQGISNYLNWYQQKPGKTVKLLIYYTSNLHSGVPSRFSGSGSGTDYTLTISSLQPEDFATYYCQQYSELPWTFGQGTKVEIK",42 nM and 52 nM
11,"humanized 9B12 variant v23 (antibody, V domains shown, IgG. k1 graft + 71 / VH2 graft + 24 + 49 + 73 + 76; Residue changes derived) VH: EVQLVESGPALVKPTQTLTLTCTVSGFSLTGYSVNWIRQPPGKALEWLGMIWGDGSTDYNSALKSRLTISKDNSKSQVVLTMTNMDPVDTATYYCARDYYFNYASWFAYWGQGTLVTVSS VL: DIQMTQSPSSLSASVGDRVTITCSASQGISNYLNWYQQKPGKAPKLLIYYTSNLHSGVPSRFSGSGSGTDYTLTISSLQPEDFATYYCQQYSELPWTFGQGTKVEIK",54 nM
12,"humanized 9B12 variant v20 (antibody, V domains shown, IgG. k1 graft 43+44+71 / VH3 graft + 24 + 48 + 67 + 71 + 76 + 78; Residue changes derived) VH: EVQLVESGGGLVQPGGSLRLSCAVSGFSLTGYSVNWVRQAPGKGLEWLGMIWGDGSTDYNSALKSRLTISKDNSKSTVYLQMNSLRAEDTAVYYCARDYYFNYASWFAYWGQGTLVTVSS VL: DIQMTQSPSSLSASVGDRVTITCSASQGISNYLNWYQQKPGKTVKLLIYYTSNLHSGVPSRFSGSGSGTDYTLTISSLQPEDFATYYCQQYSELPWTFGQGTKVEIK",26 nM
13,"humanized 9B12 variant v14 (antibody, V domains shown, IgG. k1 graft 43+44+71 / VH3 graft + 24; Residue change derived) VH: EVQLVESGGGLVQPGGSLRLSCAVSGFSLTGYSVNWVRQAPGKGLEWVGMIWGDGSTDYNSALKSRFTISRDNSKNTLYLQMNSLRAEDTAVYYCARDYYFNYASWFAYWGQGTLVTVSS VL: DIQMTQSPSSLSASVGDRVTITCSASQGISNYLNWYQQKPGKTVKLLIYYTSNLHSGVPSRFSGSGSGTDYTLTISSLQPEDFATYYCQQYSELPWTFGQGTKVEIK",39 nM and 56 nM
14,"humanized 9B12 variant v2 (antibody, V domains shown, IgG. k1 graft / VH2 graft + 24 + 49; Residue changes derived against v12) VH: EVQLVESGPALVKPTQTLTLTCTVSGFSLTGYSVNWIRQPPGKALEWLGMIWGDGSTDYNSALKSRLTISKDTSKNQVVLTMTNMDPVDTATYYCARDYYFNYASWFAYWGQGTLVTVSS VL: DIQMTQSPSSLSASVGDRVTITCSASQGISNYLNWYQQKPGKAPKLLIYYTSNLHSGVPSRFSGSGSGTDFTLTISSLQPEDFATYYCQQYSELPWTFGQGTKVEIK",28 nM and 37 nM
15,"humanized 9B12 variant v7 (antibody, V domains shown, IgG. k1 graft 43+44 / VH2 graft + 24 + 49; Residue change derived) VH: EVQLVESGPALVKPTQTLTLTCTVSGFSLTGYSVNWIRQPPGKALEWLGMIWGDGSTDYNSALKSRLTISKDTSKNQVVLTMTNMDPVDTATYYCARDYYFNYASWFAYWGQGTLVTVSS VL: DIQMTQSPSSLSASVGDRVTITCSASQGISNYLNWYQQKPGKTVKLLIYYTSNLHSGVPSRFSGSGSGTDFTLTISSLQPEDFATYYCQQYSELPWTFGQGTKVEIK",24 nM and 36 nM
16,"humanized 9B12 variant v4 (antibody, V domains shown, IgG. k1 graft / VH3 graft + 24) VH: EVQLVESGGGLVQPGGSLRLSCAVSGFSLTGYSVNWVRQAPGKGLEWVGMIWGDGSTDYNSALKSRFTISRDNSKNTLYLQMNSLRAEDTAVYYCARDYYFNYASWFAYWGQGTLVTVSS VL: DIQMTQSPSSLSASVGDRVTITCSASQGISNYLNWYQQKPGKAPKLLIYYTSNLHSGVPSRFSGSGSGTDFTLTISSLQPEDFATYYCQQYSELPWTFGQGTKVEIK",98 nM and 70 nM
17,"humanized 9B12 variant v10 (antibody, V domains shown, IgG. k1 graft 43+44 / VH3 graft + 71 + 78; Residue changes derived) VH: EVQLVESGGGLVQPGGSLRLSCAASGFSLTGYSVNWVRQAPGKGLEWVGMIWGDGSTDYNSALKSRFTISKDNSKNTVYLQMNSLRAEDTAVYYCARDYYFNYASWFAYWGQGTLVTVSS VL: DIQMTQSPSSLSASVGDRVTITCSASQGISNYLNWYQQKPGKTVKLLIYYTSNLHSGVPSRFSGSGSGTDFTLTISSLQPEDFATYYCQQYSELPWTFGQGTKVEIK",61 nM
18,"humanized 9B12 variant v17 (antibody, V domains shown, IgG. k1 graft 43+44+71 / VH2 graft + 24 + 49 + 73; Residue change derived) VH: EVQLVESGPALVKPTQTLTLTCTVSGFSLTGYSVNWIRQPPGKALEWLGMIWGDGSTDYNSALKSRLTISKDNSKNQVVLTMTNMDPVDTATYYCARDYYFNYASWFAYWGQGTLVTVSS VL: DIQMTQSPSSLSASVGDRVTITCSASQGISNYLNWYQQKPGKTVKLLIYYTSNLHSGVPSRFSGSGSGTDYTLTISSLQPEDFATYYCQQYSELPWTFGQGTKVEIK",29 nM

# Target: T1, human Ly6E, N-terminal gD-tagged, …
# Test: cell-based Ly6E competitive binding assay on human Ly6E PC3 cells; competitor mouse 9B12
# Protocol: as §1, §2
row,Binder,binding result
1,"humanized 9B12 variant v1 (antibody, V domains shown, IgG. k1 graft / VH2 graft + 49) VH: EVQLVESGPALVKPTQTLTLTCTFSGFSLTGYSVNWIRQPPGKALEWLGMIWGDGSTDYNSALKSRLTISKDTSKNQVVLTMTNMDPVDTATYYCARDYYFNYASWFAYWGQGTLVTVSS VL: DIQMTQSPSSLSASVGDRVTITCSASQGISNYLNWYQQKPGKAPKLLIYYTSNLHSGVPSRFSGSGSGTDFTLTISSLQPEDFATYYCQQYSELPWTFGQGTKVEIK",no binding
